According to paper PMC3034019 (The EMBO Journal, 2011):

Legend:
[1] = target: Oregon-Green-labelled actin monomers (OG-actin) (UniProt P68135 1-377, Oregon-Green (OG) label, position not stated); experiment: other fluorescence titration
[2] = target: Oregon-Green-labelled actin monomers (OG-actin) (UniProt P68135 1-377, Oregon-Green (OG) label, position not stated); experiment: stopped-flow fluorescence kinetics

Binder | Kd [1] [nM] | kon [2] [M⁻¹ s⁻¹]
GRNALLGSIENFSKGGLKKTVT [DdGAB peptide (G-actin-binding site of Dictyostelium discoideum VASP)] | 630 | 
GLAAAIAGAKLRKVSK [hGAB peptide (G-actin-binding site of human VASP)] | 10300 | 
GRNALLSDISKGKKLKKTVT [WIP-WH2-peptide (WH2 core motif of WASP-interacting protein)] | 840 | 
EVH2 domain of Dictyostelium discoideum VASP (DdEVH2) (domain or fragment) GRNALLGSIENFSKGGLKKTVTVDKSAGVPTKTTPSANSAASNAGSEPSSGGSTPAPAPKSSGGGGGGDLMAEVMAKRAKMKAAASQPKEESSAPTPAPTPAPTPAPTPSSTSFKPPQSFSKPATKTAAANKPPSPSLSAPLPSTVANEDLQSLKEEILTEVRKEIQKAKDEILEAIRASQH |  | 5.3e+07
